# Results taken from US6730486 (INSTITUT NATIONAL DE LA SANTE ET DE LA RECHERCHE MEDICALE, dated 2004).
# B1: human βTrCP protein (h-βTrCP) (other)
# chain: MDPAEAVLQEKALKFMNSSEREDCNNGEPPRKIIPEKNSLRQTYNSCARLCLNQETVCLASTAMKTENCVAKTKLANGTSSMIVPKQRKLSASYEKEKELCVKYFEQWSESDQVEFVEHLISQMCHYQHGHINSYLKPMLQRDFITALPARGLDHIAENILSYLDAKSLCAAELVCKEWYRVTSDGMLWKKLIERMVRTDSLWRGLAERRGWGQYLFKNKPPDGNAPPNSFYRALYPKIIQDIETIESNWRCGRHSLQRIHCRSETSKGVYCLQYDDQKIVSGLRDNTIKIWDKNTLECKRILTGHTGSVLCLQYDERVIITGSSDSTVRVWDVNTGEMLNTLIHHCEAVLHLRFNNGMMVTCSKDRSIAVWDMASPTDITLRRVLVGHRAAVNVVDFDDKYIVSASGDRTIKVWNTSTCEFVRTLNGHKRGIACLQYRDRLVVSGSSDNTIRLWDIECGACLRVLEGHEELVRCIRFDNKRIVSGAYDGKIKVWDLVAALDPRAPAGTLCLRTLVEHSGRVFRLQFDEFQIVSSSHDDTILIWDFLNDPAAQAEPPRSPSRTYTYISR
# notes: 569 amino acids; also called whole h-βTrCP protein
# B2: βCat1→130 S33-37AA (oncogenic β-catenin protein mutated on serine residues S33 and S37 so that there is no phosphorylation) (other, UniProt P35222 1-130, looked up)
# chain: MATQADLMELDMAMEPDRKAAVSHWQQQSYLDAGIHAGATTTAPSLSGKGNPEEEDVDTSQVLYEWEQGFSQSFTQEQVADIDGQYAMTRAQRVRAAMFPETLDEGMQIPSTQFDAAHPTNVQRLAEPSQ
# notes: range 1-130; also called mutated β-catenin
# B3: cytoplasmic region of CD4 (CD4c) (receptor, UniProt P01730 419-458, looked up)
# chain: CVRCRHRRRQAERMSQIKRLLSEKKTCQCPHRFQKTCSPI
# notes: domain: cytoplasmic region; Two-hybrid fusion; also called CD4 cytoplasmic domain
# B4: IκBα S32-36A (IκBα mutant at serines S32 and S36 so that there is no phosphorylation) (other, UniProt P25963 1-317, looked up)
# chain: MFQAAERPQEWAMEGPRDGLKKERLLDDRHDAGLDAMKDEEYEQMVKELQEIRLEPQEVPRGSEPWKQQLTEDGDSFLHLAIIHEEKALTMEVIRQVKGDLAFLNFQNNLQQTPLHLAVITNQPEIAEALLGAGCDPELRDFRGNTPLHLACEQGCLASVGVLTQSCTTPHLHSILKATNYNGHTCLHLASIHGYLGIVELLVSLGADVNAQEPCNGRTALHLAVDLQNPDLVSLLLKCGADVNRVTYQGYSPYQLTWGRPSTRIQQQLGQLTLENLQMLPESEDEESYDTESEFTEFTEDELPYDDCVFGGQRLTL
# notes: Two-hybrid hybrid; also called IκBα S32-36AA
# Columns and labels:
# [1] = molecular target: endogenous IκBα protein of 293 or Hela cells, phosphorylated form (human) (UniProt P25963); assay: cell-based or functional assay
# [2] = molecular target: T1, βCat (whole normal β-catenin protein) (UniProt P35222 1-781); assay: yeast two-hybrid, FIG. 10
# T1 construct: Two-hybrid hybrid; also called whole β-catenin protein
# T1 sequence (looked up): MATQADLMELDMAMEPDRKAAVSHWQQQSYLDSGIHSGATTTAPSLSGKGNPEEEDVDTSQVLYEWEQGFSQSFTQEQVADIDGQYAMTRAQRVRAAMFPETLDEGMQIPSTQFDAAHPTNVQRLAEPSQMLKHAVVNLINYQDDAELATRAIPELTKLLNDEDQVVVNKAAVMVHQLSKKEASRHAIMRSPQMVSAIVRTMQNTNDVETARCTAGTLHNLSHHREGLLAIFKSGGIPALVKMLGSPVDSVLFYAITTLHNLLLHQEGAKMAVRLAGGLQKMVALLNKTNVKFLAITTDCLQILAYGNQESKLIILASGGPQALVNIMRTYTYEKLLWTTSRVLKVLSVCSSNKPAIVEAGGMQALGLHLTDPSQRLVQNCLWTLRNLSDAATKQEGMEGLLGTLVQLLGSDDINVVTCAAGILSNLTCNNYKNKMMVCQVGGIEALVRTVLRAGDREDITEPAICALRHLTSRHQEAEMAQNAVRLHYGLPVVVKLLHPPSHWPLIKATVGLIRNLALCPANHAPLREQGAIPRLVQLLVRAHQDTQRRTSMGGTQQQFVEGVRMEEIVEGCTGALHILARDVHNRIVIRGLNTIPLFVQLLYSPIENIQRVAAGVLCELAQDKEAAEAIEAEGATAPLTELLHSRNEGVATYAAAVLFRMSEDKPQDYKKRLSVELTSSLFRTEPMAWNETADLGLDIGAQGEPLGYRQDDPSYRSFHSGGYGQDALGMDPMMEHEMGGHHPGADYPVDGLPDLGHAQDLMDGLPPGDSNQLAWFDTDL
# [3] = molecular target: T2, KIAA 0696 (βTrCP2), human βTrCP protein isolated by ISHIKAWA et al. (human, UniProt Q9UKB1 1-542, limits assumed); assay: yeast two-hybrid
# T2 construct: Two-hybrid hybrid; also called βTCP2; KIA 696
# T2 sequence (looked up): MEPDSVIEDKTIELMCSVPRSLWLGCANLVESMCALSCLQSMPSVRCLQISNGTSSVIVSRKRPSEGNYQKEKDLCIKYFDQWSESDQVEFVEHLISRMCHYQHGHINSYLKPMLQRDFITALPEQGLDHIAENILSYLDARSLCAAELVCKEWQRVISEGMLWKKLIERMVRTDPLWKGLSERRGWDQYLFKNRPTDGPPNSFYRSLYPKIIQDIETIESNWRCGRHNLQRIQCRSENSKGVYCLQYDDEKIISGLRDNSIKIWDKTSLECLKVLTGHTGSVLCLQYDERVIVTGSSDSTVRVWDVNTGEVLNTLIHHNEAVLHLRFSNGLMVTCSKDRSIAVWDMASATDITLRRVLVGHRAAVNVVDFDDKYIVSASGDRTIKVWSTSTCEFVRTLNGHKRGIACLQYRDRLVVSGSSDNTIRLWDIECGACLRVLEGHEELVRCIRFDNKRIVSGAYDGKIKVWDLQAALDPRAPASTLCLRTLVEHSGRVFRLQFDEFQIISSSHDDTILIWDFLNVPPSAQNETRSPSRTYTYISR
# [4] = molecular target: B1; assay: yeast two-hybrid
# human Skp1p protein = human Skp1p protein (human, UniProt P63208 1-163); assay: yeast two-hybrid (strain L40)
# [5] = molecular target: B1; assay: yeast two-hybrid (His3 and LacZ reporters)
# Chain of human Skp1p protein (P63208 whole entry): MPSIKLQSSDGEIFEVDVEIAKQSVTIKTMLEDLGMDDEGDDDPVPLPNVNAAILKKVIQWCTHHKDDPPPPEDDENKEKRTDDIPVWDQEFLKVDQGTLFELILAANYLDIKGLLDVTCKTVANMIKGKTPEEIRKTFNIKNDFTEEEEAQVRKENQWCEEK
molecule,measurement,setting,value
h-βTrCPΔF fragment (deleted residues: 32 to 179) (from UniProt Q9Y297 1-605),"fold decrease in transcription activation induced by TNFα (NFκB-dependent luciferase reporter, FIG. 7)",[1],20 fold
B1,binding result,[2],binds
B2,binding result,[3],no binding
same,binding result,[4],no binding
B3,binding result,human Skp1p protein,no binding
same,binding result,[5],no binding
B4,binding result,[4],no binding
